One molecule from patent publication CN111138530A (INST MILITARY MEDICINE ACADEMY MILITARY SCIENCES PLA, dated 2020) can be followed below.

In test [1] the target is GP1 (Ebola virus (EBOV), UniProt Q05320 33-501). Kind of test: ELISA on coated truncated GP. A general note: An ELISA detects its analyte on a solid surface through an enzyme-linked reagent.
Test [2] has as its target GP 95-295 (Ebola virus (EBOV), UniProt Q05320 95-295). Put plainly: ELISA on coated truncated GP.
The target in test [3] is sGP (Ebola virus (EBOV), UniProt Q05320 33-295). Kind of test: ELISA on coated truncated GP.
Test [4] deals with T1, EBOV GP (Ebola virus (EBOV), UniProt Q05320 33-650).
T1 sequence: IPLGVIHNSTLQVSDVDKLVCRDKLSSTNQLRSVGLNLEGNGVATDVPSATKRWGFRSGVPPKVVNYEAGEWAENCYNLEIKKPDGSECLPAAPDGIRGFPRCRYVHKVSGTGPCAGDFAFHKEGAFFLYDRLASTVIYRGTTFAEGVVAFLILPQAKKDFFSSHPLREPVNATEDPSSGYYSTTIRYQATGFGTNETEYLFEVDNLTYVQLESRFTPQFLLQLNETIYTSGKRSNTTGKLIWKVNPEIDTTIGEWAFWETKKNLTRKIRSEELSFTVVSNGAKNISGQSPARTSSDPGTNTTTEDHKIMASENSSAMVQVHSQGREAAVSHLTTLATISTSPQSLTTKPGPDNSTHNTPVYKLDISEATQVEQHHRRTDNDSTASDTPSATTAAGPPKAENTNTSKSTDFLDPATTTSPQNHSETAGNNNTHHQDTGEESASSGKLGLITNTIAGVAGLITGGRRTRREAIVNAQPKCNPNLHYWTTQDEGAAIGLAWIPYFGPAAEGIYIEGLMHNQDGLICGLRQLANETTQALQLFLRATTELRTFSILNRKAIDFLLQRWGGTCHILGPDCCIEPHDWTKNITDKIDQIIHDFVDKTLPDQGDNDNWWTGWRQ
Put plainly: ELISA, coated GP 1 μg/mL, antibody titrated from 10 μg/mL.

Test [5] addresses T2, RESTV GP (RESTV, UniProt Q66799 34-651).
T2 sequence: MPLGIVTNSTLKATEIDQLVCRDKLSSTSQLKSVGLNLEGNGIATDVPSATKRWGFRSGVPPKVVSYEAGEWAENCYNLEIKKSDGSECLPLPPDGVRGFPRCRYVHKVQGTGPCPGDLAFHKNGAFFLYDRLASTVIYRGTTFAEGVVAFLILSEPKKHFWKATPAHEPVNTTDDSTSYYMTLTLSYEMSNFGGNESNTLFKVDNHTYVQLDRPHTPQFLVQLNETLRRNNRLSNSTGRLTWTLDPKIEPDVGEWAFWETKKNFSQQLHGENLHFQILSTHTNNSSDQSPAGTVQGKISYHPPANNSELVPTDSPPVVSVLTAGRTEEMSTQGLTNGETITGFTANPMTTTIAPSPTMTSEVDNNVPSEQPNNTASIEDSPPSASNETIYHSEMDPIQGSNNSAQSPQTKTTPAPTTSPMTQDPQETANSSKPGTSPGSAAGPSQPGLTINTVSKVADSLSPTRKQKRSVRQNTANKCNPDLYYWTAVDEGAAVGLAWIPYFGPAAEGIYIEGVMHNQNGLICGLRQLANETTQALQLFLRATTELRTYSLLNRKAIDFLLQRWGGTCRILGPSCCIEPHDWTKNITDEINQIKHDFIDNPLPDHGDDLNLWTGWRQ
The test is described as above.

Test [6] has as its target T3, SUDV GP (SUDV, UniProt Q7T9D9 33-650).
T3 sequence: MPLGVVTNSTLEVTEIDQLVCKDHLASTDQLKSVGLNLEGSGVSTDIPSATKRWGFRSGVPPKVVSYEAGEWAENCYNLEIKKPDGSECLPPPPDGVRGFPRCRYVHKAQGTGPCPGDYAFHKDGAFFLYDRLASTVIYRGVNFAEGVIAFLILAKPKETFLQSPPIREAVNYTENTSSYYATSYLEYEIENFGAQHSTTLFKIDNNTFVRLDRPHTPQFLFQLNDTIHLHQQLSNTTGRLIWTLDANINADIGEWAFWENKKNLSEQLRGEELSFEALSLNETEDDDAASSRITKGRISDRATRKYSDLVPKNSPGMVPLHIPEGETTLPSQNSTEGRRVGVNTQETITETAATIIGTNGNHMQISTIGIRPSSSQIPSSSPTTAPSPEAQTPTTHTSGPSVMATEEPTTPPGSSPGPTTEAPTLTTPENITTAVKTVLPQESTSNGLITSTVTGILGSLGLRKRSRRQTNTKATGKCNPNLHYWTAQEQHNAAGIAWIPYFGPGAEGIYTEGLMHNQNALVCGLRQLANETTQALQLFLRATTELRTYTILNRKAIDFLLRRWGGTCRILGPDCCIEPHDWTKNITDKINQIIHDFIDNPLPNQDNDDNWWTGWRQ
The test is described as above.

B1: 抗埃博拉病毒糖蛋白GP1亚基的单克隆抗体5E9 (antibody, V domains shown)
VH: EVQLLESGGGLVKPGGSLRLSCVASGFTFTNAWMNWVRQAPGKGLEWVGRIKSKTDSGTTDYAAPVNGRFTISRDDSKNTLYLQMNSLKTEDTAVYYCTTRYQYNGMDVWGQGTTVTVSS
VL: QPVLTQPPSVSGAPGQRVTISCTGRSSNIGAGYDVHWYQHLPGTAPKLLIYANTNRPSGVPDRFSGSKSGTSASLAITGLQPGDEADYYCQSYDSRLSDHVVFGGGTKLTVLG
For orientation: EC50 means the concentration at which the effect is half-maximal. Low values mean a more potent agent, high ones a less potent agent. Regarding B1, the half-maximal effective concentration (EC50) in test [1] is 4.1 ng/mL; in test [2] it was 11.8 ng/mL; in test [3], 5 ng/mL; in test [4], 6 ng/mL; in test [5] it was 149 ng/mL; in test [6], above 1000 ng/mL.
